{
  "source": "paper PMC3572128",
  "binders": {"B1": {"name": "full-length Bid (C15S, C28S), fluorescently labelled (natural protein)", "chain": "MDCEVNNGSSLRDESITNLLVFGFLQSSSDNSFRRELDALGHELPVLAPQWEGYDELQTDGNRSSHSRLGRIEADSESQEDIIRNIARHLAQVGDSMDRSIPPGLVNGLALQLRNTSRSEEDRNRDLATALEQLLQAYPRDMEKEKTMLVLALLLAKKVASHTPSLLRDVFHTTVNFINQNLRTYVRSLARNGMD", "modifications": "Bodipy488 or Alexa647 maleimide labelling (legends and results also say Alexa488)"}},
  "biological_target": "caspase-8 (P10 and P18 subunits reconstituted in their active form)",
  "assay": "flow cytometry of giant unilamellar vesicles; CL-containing GUVs in PBS; caspase-8 290 nM bound to the vesicles, fluorescent Bid added at 10 to 100 nM; vesicle fluorescence recorded online",
  "data": [
    {"binder": "B1", "values": [
      {"measurement": "mean fluorescence of GUVs + caspase-8 + Bid (0 min)", "result": 84, "unit": "a.u."}
    ]}
  ]
}
